This passage reports Kd results from article doi:10.1101/2023.07.25.550441.

Holding throughout (test): SPR
Background: In SPR one partner is held on a chip, and binding of the other changes the refractive index at the surface.

The target in test [1] is Asgard UEV (the UEV of UEV-Vps23 and UEV-Vps28), as tested against Asgard ubiquitin.
Test [2] addresses Helarchaeia RING E3 (N-loopΔ), truncated E3 that lacks the N-loop (residues 1-19) (Helarchaeota).
The target in test [3] is Helarchaeia full-length RING E3 (Helarchaeota).

In test [1], “Asgard ubiquitin, as tested against Asgard UEV” returned a Kd of 0.674 to 7.15 µM.

As to “Helarchaeia UEV (residues 1-132) of UEV-Vps23 (domain or fragment)”, the Kd was 8140 µM in test [2] and 257 µM in test [3].

Broadly, the Kd is the constant that tells how readily two partners part at equilibrium. Low readings indicate higher affinity, high ones lower affinity.
